Here are results for 19 molecules from publication PMC9253517 (The Journal of Experimental Medicine, 2022).

Where only a bound is given, the exact number is not on record here.

B1: JR068 (antibody, V domains shown)
VH: QVQLQESGPGLVKPSQTLSLTCTVFGGSIRSGDYYWSWIRQPPGKGLEWMGYIYSSGSAYYNPSLESRVTISIDASKNQFSLKVNSVTAADTAVYYCARDGFWFGFGSFDIWGLGTMVTVSS
VL: EIVMTQSPATLSVSPGERAALSCRASQSVSSNLAWYQQRVGQAPRLLIYGASTRATGIPARFSGSGSGTEFTLTISSLQSEDFAVYYCQQYNNWPPLTFGGGTKVEIK
B2: JR065 (antibody, V domains shown)
VH: VQLVESGGGVAQPGRSLRLSCAASGFTFSHYGMHWVRQGPGKGLEWVAGISFDGSDKYYADSVKGRFTISRDNSKNTFYLQMNSLRTDDTAVFYCAKQGFGYGSGWYYFDYWGQGTLVTVSS
VL: IRMTQSPSSLSASVGDRVTITCQASQDISKYLNWYQQRPGKAPKPLIYDASNLETGVPSRFSGSGSGTDFTLTITNLQPEDIATYYCQQYDNVPSVTFGQGTRLEIK
B3: JR317 (antibody, V domains shown)
VH: QVQLVESGGGVVQPGKSLRLSCAASGFTFSSYGMHWVRQAPGKGLEWVAVIWYDGSNKYYADSVKGRFTISRDNSKSTLYVQMNSLRAEDTAVYYCARVRTIFRPLDYMDVWGKGTTVTVSS
VL: SYELTQPPSVSVAPGQTARITCGGNNIGSKSVHWYQQKPGQAPVLVVYDDSARPSGIPERFSGSNSGNAATLTISRVEAGDEADYYCQVWDRDYSSDHLWVFGGGTKLTVL
B4: JR206 (antibody, V domains shown)
VH: EVQLVQSGAEVKKPGESLKISCKGSGFNFSRYWIGWVRQMPGKGLEWMGIIYLGDSDTTYSPSFQGQVTISADKSISTAYLQWSSLKASDTAMFYCATRSGYFYGYETWGQGTLVTVSS
VL: SYELTQPPSVSVAPGKTAKITCGGNNIGSKTVHWYQQRPGQAPVLVVYDNRDRPSGIPERFSGSNSGNTAALTISRVEAGDEADYYCQVWDSSSDHYVFGTGTKVTVL
B5: JR077 (antibody, V domains shown)
VH: EVQLVESGGGLVQPGGSLRLSCAASGFTFSDYDMHWVRQVTGKGLEWVSAVGTRGDTYYAASVKGRFTISRENAKNSLYLQMNSLRAGDTAVYYCARVGYDSTGFYYYFDYWGQGTLVTVSS
VL: DIQLTQSPSSLSASVGDRVTITCRASQRIGRFLNWYQQKPGKAPKLLIYIVSSLQSGVPSRFSGSGSGTDFTLTINSLQPEDFATYYCQQTYNMPPITFGQGTRLEIK
B6: JR189 (antibody, V domains shown)
VH: EVQLVESGGGLIQPGGSLRLSCAASGFNVNSNYINWVRQAPGKGLEWVSVIYSSGKTYFADSVKGRFTISRDNSKNTLYLQMNILRAEDTAVYYCATTTTVTPIWGQGTLVTVSS
VL: DIQMTQSPSALSASVGDRVTFTCRASQDIRNYLGWYQQKPGEAPKLLVYAASSLQSGVPSRFSGSGSGTDFTLTISSLQPEDFATYYCLQDYNYPWTFGQGTKVEIK
B7: JR316 (antibody, V domains shown)
VH: QVQLVQSGAEVKKPGSSVKVSCKASGGSFSTHGISWVRQAPGQGLEWMGGIIPISGRANYAQNFQGRVTITADESTKTAYMELSSLRSEDTAVYYCARDDRFCDTTKCYGLWFDPWGQGTLVTVSS
VL: DIQMTQSPSSLSASVGDRVTITCRASQSISTYLNWYQQKPGKAPKVLIYAASTLQSGVPSRFSGSGSGTDFTLTISSLQPEDFATYYCQQTYSSPRAFGQGTKVEIK
B8: JR209 (antibody, V domains shown)
VH: EVQLLESGGGLVQPGQSLRLYCAASGFTFSSHGMSWVRQAPGKGLEWVSSISSSGGRTYDADSVKGRFTISRDNSENTVYLQMNSLRVADTAVYYCVKENGPHRWSGEVHGMDVWGQGTTVTVSS
VL: QSVLTQPPSVSGAPGQRVTISCTGSSSNIGTGYDVHWYQHLPGTAPKLLIYDNNNRPSGVPDRFSGSKSATSASLAITGLQAEDEGDYYCQSYDTSLSGLAFGGGTKLTVL
B9: JR186 (antibody, V domains shown)
VH: EVQLLESGGGLIPPGGSLRLSCAASGFTFSSYAMSWVRQAPGKGLEWVSGISGSGTDTDEGDSVKGRFTISRDNSKNTLWLQIHTLRVEDTAIYYCAKASRGYVSNFDYFDRWGQGTLVTVSS
VL: SYELTQPPSVSVAPGETAKITCGGDNIGTKSVHWYLQKAGQAPVLVISDDSNRPSGIPERFSGSNSGNTATLTINRVEGGDEADYYCQVWTSFGAGTRVTVI
B10: JR050 (antibody, V domains shown)
VH: QVQLVQSGAEVKKPGASVKVSCKTSGDTFTNHYMHWVRQAPGQGLEWMGIINPSAGSTSYAQKFQGRVTMTRDTSTSTVYMELSSLRSEDTAVYYCARDIVFIPALDAFDIWGQGTMVTVSS
VL: EIVLTQSPATLSLSPGERATLSCRASQSVSSYLAWYQQKPGQAPRLLIYDTSNRATGIPARFSGSGSGTDFTLTISSLEPEDFAVYYCQQRRNWPPMYTFGQGTKLEIK
B11: JR057 (antibody, V domains shown)
VH: VQLVESGGGVVQPGRSLRLSCAASGFTFSSYAMHWVRQAPGKGLEWVALISYDGNNKYYADSVKGRFTVSRDNSKNTLFLQMNSLRAEDTAVYYCARDNEVSAAFDFWGQGTMVTVSS
VL: EIVLTQSPGTLSLSPGERATLSCRASQSLSSTYLAWYQHKPGQAPRLLIYAASSRATDIPDRFSGSGSGTDFTLTISRLEPEDFAVYYCQQYGGSPMCSFGQGTKLEIK
B12: JR072 (antibody, V domains shown)
VH: VQLVESGGGVVQPGRSLRLSCAASGFTFSTYGMHWVRQAPGKGLEWVAGISYDGSDKYYGDSVRGRFTVSRDNSKNTLYLQMNSLRAEDTAVYYCAKGQGPYCSAGNCYTHYFDYWGQGTLVTVSS
VL: EIVLTQSPATLSLSPGERATLSCRASQSVGNYLAWYQQKPGQAPRLLIDDASNRAAGTPARFSGSGSGTDFTLTISSLEPEDFAVYYCQQRSNWPPITFGQGTRLEIK
B13: JR312 (antibody, V domains shown)
VH: QVQLVQSGAEVKKPGSSVKVSCKASGAKPSGVSFSSYAFNWVRRAPGQGLEWVGGIIPIFGPANYAQKFQGRVTITADESTSTAYMELSSLSSEDTAIYYCARERYCNSPDCYSWERGDFDVWGQGTMVTVSS
VL: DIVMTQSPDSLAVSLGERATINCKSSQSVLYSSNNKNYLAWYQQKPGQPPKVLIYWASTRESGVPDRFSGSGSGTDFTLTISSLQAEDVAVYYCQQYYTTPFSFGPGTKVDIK
B14: JR099 (antibody, V domains shown)
VH: EVQLVESGGGLVQPGGSLRLSCAASGFTFSDYDMHWVRQVRGKGLEWLSIIGTAGDTYYPDSVKGRFTISRENAKNSLYLQMNSLRVGDTGVYYCARDRASTSGTDGMDVWGQGTTVTVSS
VL: DIQLTQSPSSLSASVGDRVTITCRASQSISRYLNWYQQRPGKAPKLLIYAAFTLESGVPSRFSGSGSGTDFTLTISSLQAEDFATYHCQQSYSTSALTFGGGTKVEIK
B15: JR052 (antibody, V domains shown)
VH: QVQLVQSGAEVKKPGASVKVSCEASGYTFTTYHMHWVRQAPGQGLEWMGIINPSRGSANYAQKFQGRVTMTRDTSTRTVYMELSSLRSEDTALYYCARDPNYYDSSGHKIEYFQHWGQGTLVTVSS
VL: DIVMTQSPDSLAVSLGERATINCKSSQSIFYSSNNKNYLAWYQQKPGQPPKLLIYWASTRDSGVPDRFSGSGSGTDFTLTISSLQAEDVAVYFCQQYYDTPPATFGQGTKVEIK
B16: JR054 (antibody, V domains shown)
VH: QLQLQESGPRLMKPSETLSLTCSVSGGSISRSHYYWGWIRQPPGKGLEWIGSIYYNGSTYYNPSLRSRVTISVDTTKNQFSLKLSSVTAADTAEYYCARPGPSYYDRSGYNRAEYFQHWGQGTLVTVSS
VL: IRMTQSPSSLSASVGDRVTITCQASQDISNYLNWYQQKPGKAPKLLIYDASNLETGVPPRFSGSGSGTDFTFTISSLQPEDFATYSCQQYDNLPLTFGGGTKVEIK
B17: JR069 (antibody, V domains shown)
VH: EVQLVESGGGLVQPGGSLRLSCAASGFSFSNYDMLWLRQITGRGLEWVSLIGTSGDTYYSDSVKGRFTISRENGKNSLYLQMNRLRAGDTAVYYCARGNFDTSGFYSYFDTWGQGTLVTVSS
VL: DIQLTQSPSYLSASVGDRVTITCRASQTIKNYLNWYQQKPGKAPKLLIYAVSTLQNGVSSRFRGSGSGTDFTLTISSLQPEDFATYYCQQSYTIPPYTFGQGTKLEIK
B18: JR060 (antibody, V domains shown)
VH: QVQLVQSGAEVKKPGASVRVSCKASGYTFNNYGIIWVRQAPGQGLEWVGWISAYNANTNYAQKLQGRVSMTTDTPTSTVYMELRSLRSDDTAVYYCASGLGAAGTEPPSDYWGQGTLVTVSS
VL: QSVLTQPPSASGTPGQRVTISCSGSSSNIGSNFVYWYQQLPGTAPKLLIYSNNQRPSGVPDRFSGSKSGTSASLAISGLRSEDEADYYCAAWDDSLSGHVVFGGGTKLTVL
B19: JR053 (antibody, V domains shown)
VH: QVQLVQSGAEVKKPGASVKVSCKASGYTFTSHYMHWVRQAPGQGLEWMGIINPSGGSTSHAQKFQGRVTLTSDTSTSTVYMELSSLRSEDTAVYYCARDLSFIPSIAWNCGYWGQGTLVTVSS
VL: QSALTQPASVSGSPGQSITISCTGTSSDVGGYNYVSWYQQHPGKAPKLMIYDVSDRPSGVSNRFSGSKSGNTASLTISGLQAEDEADYYCSSYTSSSSYVFGTGTKVTVL

The first test has as its target T1, SARS-CoV-2 Wuhan-Hu-1 RBD (SARS-CoV-2, Wuhan-Hu-1 (GenBank …, UniProt P0DTC2)). Briefly: BLI. To be noted: both partners purified.
On to B1, for which the binding result was “binds”.
The same measure, in the same setting: next, B2: “binds”.
Same read-out and setting: next, B3: “binds”.
On the same count and under the same terms, next, B4: “binds”.
For the molecule B5, the binding result is given as “binds”.
Same read-out and setting: to B6 belongs “binds”; to B7, “binds”.
For B8, the binding result is reported as “binds”.
Turning to B9, the binding result is “binds”.
With B10, the binding result is recorded as “binds”.
The same measure, in the same setting: to B11 belongs “binds”; to B12, “binds”.
Still for that read-out and setting: next, B13: “binds”; B14: “binds”; B15: “binds”.
Turning to B16, the binding result is “binds”.
Still for that read-out and setting: to B17 belongs “binds”.
The same measure, in the same setting: to B18 belongs “binds”; to B19, “binds”.

The target of another test is T1, SARS-CoV-2 Wuhan-Hu-1 RBD. Briefly: cell-based or functional assay.
Details: not given
As to B1, the “neutralisation IC50, Wuhan-Hu-1 pseudovirus” value (“neutralisation IC50” below) was greater than 1000 ng/mL.
The same measure, in the same setting: next, B2: greater than 1000 ng/mL; B3: 34.4 ng/mL.
The same measure, in the same setting: next, B4: 137 ng/mL; B5: greater than 1000 ng/mL; B6: 7.7 ng/mL.
Still for that read-out and setting: next, B7: 10.8 ng/mL; B8: 90.1 ng/mL; B9: 74.2 ng/mL.
For the molecule B10, the “neutralisation IC50” value was greater than 1000 ng/mL.
Still for that read-out and setting: to B11 belongs 14.2 ng/mL; to B12, greater than 1000 ng/mL.
Still for that read-out and setting: to B13 belongs 27.1 ng/mL; to B14, 46.3 ng/mL; to B15, 23.9 ng/mL.
On the same count and under the same terms, to B16 belongs 51.3 ng/mL; to B17, greater than 1000 ng/mL; to B18, greater than 1000 ng/mL.
Take B19: the “neutralisation IC50” value was greater than 1000 ng/mL.
